From patent US20160311913A1 (Amgen, published 2016)

Biological target: human CGRP receptor (human, UniProt Q16602 23-461; O60894 27-148)
Test: cell-based or functional assay

Chain of human CGRP receptor (Q16602 23-461 limits assumed, chain 1 of 2): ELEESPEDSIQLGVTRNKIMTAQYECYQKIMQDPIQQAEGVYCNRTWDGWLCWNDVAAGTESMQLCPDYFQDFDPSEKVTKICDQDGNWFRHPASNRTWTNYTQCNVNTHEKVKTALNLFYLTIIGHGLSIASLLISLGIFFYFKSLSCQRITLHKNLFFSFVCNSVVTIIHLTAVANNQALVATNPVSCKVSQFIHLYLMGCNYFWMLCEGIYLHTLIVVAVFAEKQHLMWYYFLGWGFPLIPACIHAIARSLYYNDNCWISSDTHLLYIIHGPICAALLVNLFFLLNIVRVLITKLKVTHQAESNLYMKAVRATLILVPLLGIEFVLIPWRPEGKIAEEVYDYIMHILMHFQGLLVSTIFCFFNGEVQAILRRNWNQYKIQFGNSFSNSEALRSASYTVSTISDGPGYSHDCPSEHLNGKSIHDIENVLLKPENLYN
Chain of human CGRP receptor (O60894 27-148 limits assumed, chain 2 of 2): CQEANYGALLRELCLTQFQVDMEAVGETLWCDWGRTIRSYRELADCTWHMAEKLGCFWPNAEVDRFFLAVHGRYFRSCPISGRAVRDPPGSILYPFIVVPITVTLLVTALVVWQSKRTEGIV

B1: AMG 334 (antibody, human IgG2, lambda, V domains shown)
VH: QVQLVESGGGVVQPGRSLRLSCAASGFTFSSFGMHWVRQAPGKGLEWVAVISFDGSIKYSVDSVKGRFTISRDNSKNTLFLQMNSLRAEDTAVYYCARDRLNYYDSSGYYHYKYYGMAVWGQGTTVTVSS
VL: QSVLTQPPSVSAAPGQKVTISCSGSSSNIGNNYVSWYQQLPGTAPKLLIYDNNKRPSGIPDRFSGSKSGTSTTLGITGLQTGDEADYYCGTWDSRLSAVVFGGGTKLTVLG
  serum AMG 334 concentration associated with the half maximal effect (EC50) on capsaicin-induced DBF: 0.286 µg/mL
  serum AMG 334 concentration for 50% of maximal inhibition of capsaicin-induced dermal blood flow (EC50): 0.218 µg/mL
